The results in this text go back to PMC7085222, “TBC1D25 Regulates Cardiac Remodeling Through TAK1 Signaling Pathway” (International Journal of Biological Sciences, 2020).

Assay [1] deals with T1, Flag-tagged TBC1 Domain Family Member 25 (TBC1D25) (UniProt Q3MII6-1 1-688).
T1 construct: Vector pcDNA5-flag or pHAGE-3xflag; The reverse primer carries the stop codon, so the tag is probably N-terminal; also called Flag-TBC1D25; OATL1; source: HEK-293T, transfected, in lysate (co-IP); immunopurified and eluted with FLAG peptide (GST pull-down)
T1 sequence (looked up): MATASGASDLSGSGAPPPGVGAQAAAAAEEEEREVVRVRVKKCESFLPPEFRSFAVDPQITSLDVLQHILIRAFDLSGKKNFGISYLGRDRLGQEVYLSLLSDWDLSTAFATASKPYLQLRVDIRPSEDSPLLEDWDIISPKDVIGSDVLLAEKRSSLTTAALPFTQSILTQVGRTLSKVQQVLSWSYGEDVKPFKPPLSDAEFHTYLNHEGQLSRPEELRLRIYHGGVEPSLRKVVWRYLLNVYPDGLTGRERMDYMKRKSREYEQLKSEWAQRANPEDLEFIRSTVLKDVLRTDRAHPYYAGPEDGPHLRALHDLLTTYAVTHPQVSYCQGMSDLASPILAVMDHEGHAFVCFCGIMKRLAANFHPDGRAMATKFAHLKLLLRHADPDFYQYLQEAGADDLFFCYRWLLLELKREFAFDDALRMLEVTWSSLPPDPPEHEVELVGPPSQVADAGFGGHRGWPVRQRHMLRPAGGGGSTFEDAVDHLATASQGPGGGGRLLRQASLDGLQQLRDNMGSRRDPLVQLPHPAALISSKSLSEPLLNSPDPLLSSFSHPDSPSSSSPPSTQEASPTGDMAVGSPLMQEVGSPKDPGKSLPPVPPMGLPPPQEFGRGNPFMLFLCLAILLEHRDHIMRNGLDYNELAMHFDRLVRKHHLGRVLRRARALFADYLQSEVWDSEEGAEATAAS
As to the kind of experiment: pull-down; GST-HA-tagged protein from E. coli extracts held on glutathione-sepharose 4B beads, washed with PBS, incubated 4 h at 4 C with immunopurified Flag-tagged protein; washed with NaCl wash buffer; Western blot; GST tag as negative control. The conditions noted are these: both partners purified.

For another assay, the target named is T2, GST-HA-TBC1D25 (UniProt Q3MII6-1 1-688).
T2 construct: also called OATL1
T2 sequence (looked up): T1 sequence (looked up)
Described as above. The conditions noted are these: both partners purified.

B1: GST-HA-TAK1 (enzyme, UniProt O43318-2 1-579, looked up)
chain: MSTASAASSSSSSSAGEMIEAPSQVLNFEEIDYKEIEVEEVVGRGAFGVVCKAKWRAKDVAIKQIESESERKAFIVELRQLSRVNHPNIVKLYGACLNPVCLVMEYAEGGSLYNVLHGAEPLPYYTAAHAMSWCLQCSQGVAYLHSMQPKALIHRDLKPPNLLLVAGGTVLKICDFGTACDIQTHMTNNKGSAAWMAPEVFEGSNYSEKCDVFSWGIILWEVITRRKPFDEIGGPAFRIMWAVHNGTRPPLIKNLPKPIESLMTRCWSKDPSQRPSMEEIVKIMTHLMRYFPGADEPLQYPCQYSDEGQSNSATSTGSFMDIASTNTSNKSDTNMEQVPATNDTIKRLESKLLKNQAKQQSESGRLSLGASRGSSVESLPPTSEGKRMSADMSEIEARIAATTGNGQPRRRSIQDLTVTGTEPGQVSSRSSSPSVRMITTSGPTSEKPTRSHPWTPDDSTDTNGSDNSIPMAYLTLDHQLQPLAPCPNSKESMAVFEQHCKMAQEYMKVQTEIALLLQRKQELVAELDQDEKDQQNTSRLVQEHKKLLDENKSLSTYYQQCKKQLEVIRSQQQKRQGTS
notes: also called pGEX-4T-1-GST-HA-TAK1; MAP3K7
As for B1, the binding result in assay [1] is on record as “binds”.

B2: Flag-TAK1, immunopurified (enzyme, UniProt O43318-2 1-579, looked up)
chain: B1 chain
notes: Probably expressed in HEK-293T cells like the other Flag constructs; also called MAP3K7; source: immunopurified, eluted with FLAG peptide
With B2, the binding result with GST-HA-TBC1D25 is on record as “binds”.
